Data published in patent US11767359B2, “C3-binding agents and methods of use thereof” (NGM Biopharmaceuticals, Inc., priority 2018, dated 2023).
Numbering of substitutions follows the chain as printed. Names may count otherwise.

B1: 38G10: mouse anti-C3 monoclonal antibody; VH SEQ ID NO:18, VL SEQ ID NO:19 (antibody, V domains shown)
VH: EVQLQQSGPELVKPGDSVKMSCKASGYTFTDFYMDWVKQSHGKSLEWIGYIYPHNGGTTYNQNFTGKATLTVDKSSNTAYMELHSLTSEDSAVYYCARRGGFDFDYWGQGTTLTVSS
VL: NIVMTQSPKSMSLSVGERVTLRCKASENVDTYVSWYQQKPEQSPKLLIYGASNRYTGVPDRFTGSGSATEFTLTISSVQAEDLVGYHCGQSHSYPLTFGAGTKLELK
B2: Hz38G10(N55D): Hz38G10 variant with N55D mutation in heavy chain CDR2, mimics a fully deamidated molecule (antibody, V domains shown)
VH: QVQLVQSGAEVKKPGASVKVSCKASGYTFTDFYMDWVRQAPGQRLEWMGYIYPHDGGTTYNQQFTGRVTITVDKSASTAYMELSSLRSEDTAVYYCARRGGFDFDYWGQGTLVTVSS
VL: DIQMTQSPSSLSASVGDRVTITCKASENVDTYVSWYQQKPGKAPKLLIYGASNRYTGVPSRFSGSGSGTDFTFTISSLQPEDIATYHCGQSHSYPLTFGQGTKLEIK
B3: Hz38G10 (G56A): Hz38G10 variant with G56A mutation in heavy chain CDR2; VH SEQ ID NO:21, VL SEQ ID NO:25 (antibody, V domains shown)
VH: B2 VH with D55N, G56A
VL: B2 VL
B4: Hz38G10 dsscFv: VL-linker-VH disulfide-linked scFv of Hz38G10, SEQ ID NO:113 (protein)
scFv: MDIQMTQSPSSLSASVGDRVTITCKASENVDTYVSWYQQKPGKAPKLLIYGASNRYTGVPSRFSGSGSGTDFTFTISSLQPEDIATYHCGQSHSYPLTFGCGTKLEIKGGGGSGGGGSGGGGSQVQLVQSGAEVKKPGASVKVSCKASGYTFTDFYMDWVRQAPGQCLEWMGYIYPHNGGTTYNQQFTGRVTITVDKSASTAYMELSSLRSEDTAVYYCARRGGFDFDYWGQGTLVTVSS
B5: 62F2: mouse anti-C3 monoclonal antibody; VH SEQ ID NO:105, VL SEQ ID NO:106 (antibody, V domains shown)
VH: DVQLQESGPDLVKPSQSLSLTCTVTGYSITSGYSLHWIRQFPGNKLEWMGYIHYSGSTNYNPSLKSRISITRDTSKNQFFLKLNSVTSEDTATYHCARAWDYLDYWGQGTTLTVSS
VL: DIQMTQSPASLSASVGETVTITCRASENIYSQLAWYQQKQGKSPQLLVYDAKTLAEGVPSRFSGSGSDTQFSLKIISLQPEDFGRYYCHHHFGILYTFGGGTKLEMK
B6: 63A3: mouse anti-C3 monoclonal antibody; VH SEQ ID NO:107, VL SEQ ID NO:108 (antibody, V domains shown)
VH: DVQLQESGPGLVKPSQSLSLTCSVTGYSITSGYYWNWIRQFPGNKLEWMGYIRYDGSNNYNPSLKNRISITRDTSKNQVFLKLNSVTPEDTATYYCARHYGYDGGAFDFWGQGTTLTVSS
VL: DIQMTQSPASLSASVGETVTITCRTSENIYNYLVWYQQKQGKSPQLLVYNAKTLEEGVPSRFSGSGSGTQFSLKVNSLQPEDFGSYYCQHHYGTPFTFGSGTKLEIK
B7: 3D8: mouse anti-C3 monoclonal antibody; VH SEQ ID NO:91, VL SEQ ID NO:92 (antibody, V domains shown)
VH: EIQLQQSGAELVKPGASVKISCKASGYSFTGYNMNWVKQSHGKSLEWIGNINPYYGSTNYNQKFKGKATLTVDKSSTTAYMQLDSLTSEDSAVYYCARGYYGGNYPFAYWGQGTLVTVSA
VL: B6 VL with T25A, N31S, V34A, E55A, V75I, H91Y, F96Y, S100G, T102S, L104V
B8: 3G8: mouse anti-C3 monoclonal antibody; VH SEQ ID NO:93, VL SEQ ID NO:94 (antibody, V domains shown)
VH: EIQLQQSGAELVKPGASVKISCMASGYSFTGYNMNWVKQSHGKGLEWIGNINPYYDSTSYNQKFKGKATLTVDKSSSTAYMQLNSLTSEDSAVYYCARENYDFVGFAYWGQGTLVTVSA
VL: QIVLSQSPAILSASPGEKVTMTCRASSSVSYMHWFQQKPGSSPKPWIYVTSNLASGVPPRFSGSGSGTSYSLTISRVEAEDAATYYCQQWSTNPLTFGAGTKLELK
B9: 28C3: mouse anti-C3 monoclonal antibody; VH SEQ ID NO:99, VL SEQ ID NO:100 (antibody, V domains shown)
VH: QVQLQQSGPELVKPGASVKISCKASGYAFNSCWMNWVKQRPGKGLEWIGRIYPGDGDTNYNGKFKGKATLTADKSSTTAYMQLSSLTSEDSAVYFCAREGRNYGYEDYWGQGTTLTVSS
VL: DIVLTQSPASLAVSLGQRATISCKASQSVDYDGDSYMNWYQQKPGQPPKLLIYAASDLESGIPARFSGSGSGTDFTLNIHPVEEEDAATYYCQQANEDPRTFGGGTKLEIK
B10: 38F5: mouse anti-C3 monoclonal antibody; VH SEQ ID NO:101, VL SEQ ID NO:102 (antibody, V domains shown)
VH: EVMLVESGGALVKPGGSLKLSCTASGFTFSNYAMSWVRQTPEKRLEWVAQTISSGGRYTYYPDSVKGRFTISRDNARNTLYLQMSSLRSEDTAMYYCVRRYYGNSYWYFDVWGAGTTVTVSS
VL: DIVMTQSPSSLSVSAGEKVTMNCKSSQSLLNSGNQKHYLTWYQQKPGQPPKLLIYGASTRGSGVPDRFTGSGSGTDFTLTISSVQAEDLAVYYCQNDHSYPYTFGGGTKLEIK

Tests used:
C3 [1] = molecular target: T1, C3 (Homo sapiens, UniProt P01024); assay: Binding profile: binding to C3; details: summary in words of Table 13
From the text: (§1) The anti-C3 antibodies described herein were characterized for their ability to bind a number of other components of the complement cascade. Antibodies were screened for binding to C3, C3a, C3b, C3c, C3d, iC3b, and Factor Bb. All the anti-C3 antibodies included in Table 13 were able to block complement activation. The data are relative to the binding of the negative control mIgG2 antibody.

iC3b = iC3b (Homo sapiens, UniProt P01024); assay: Binding profile: binding to iC3b; details: relative to the binding of the negative control mIgG2 antibody
From the text: as §1

C3b = C3b (Homo sapiens, UniProt P01024); assay: Binding profile: binding to C3b; details: relative to the binding of the negative control mIgG2 antibody
From the text: as §1

C3c = C3c (Homo sapiens, UniProt P01024); assay: Binding profile: binding to C3c; details: relative to the binding of the negative control mIgG2 antibody
From the text: as §1

C3 [2] = molecular target: T1, C3; assay: Binding affinity by Biacore, human C3
Experimental: The binding affinities of exemplary anti-C3 antibodies to human C3 and cyno C3 were measured using a Biacore system (GE Healthcare LifeSciences). Briefly, anti-Fc antibody (Sigma-Aldrich) was immobilized on all four flow cells of a CM5 chip using amine coupling reagents (GE Healthcare LifeSciences). Antibodies were captured on flow cells 2, 3, and 4 using flow cell 1 as a reference. Concentrations ranging from 0.62-40 nM of human C3 or cyno C3 were injected at a flow rate of 50 μL/min at 37° C. Kinetic data were collected over time and fit using the simultaneous global fit equation to yield affinity constants (KD values) for each antibody.
More recently, a number of compstatin analogs and derivatives have been generated and studied. […] A Biacore system was used to assess the binding affinities of the different molecules to human C3. […] Evaluation of COMP or COMP-PEG binding to human C3 was carried out as follows. Human C3 was immobilized on flow cell 2 of a CM5 chip using amine-coupling reagents (GE Healthcare LifeSciences) and flow cell 1 (immobilized with a similar amount of human IgG) was used as a reference. […] Similar experiments were set up with COMP-PEG (concentration range of 25-400 nM) for evaluation at 37° C. COMP-PEG binding to human C3 was also evaluated at 25° C. with modifications. […]

[3] = Elevated pH stress test, deamidation at N55 of heavy chain CDR2; type: physicochemical
[4] = Solubility of Hz38G10 dsscFv by micro-concentration; type: physicochemical; details: 10 mM sodium phosphate, 40 mM sodium chloride, 0.03% polysorbate 20, 5% sucrose, pH 6.2
Experimental: The purified antibodies were dialyzed into buffer consisting of 10 mM sodium phosphate, 40 mM sodium chloride, 0.03% polysorbate 20, and 5% sucrose, pH 6.2. The solution was micro-concentrated using 10,000 Da NMWCO spin concentrator at 3,000×g at room temperature. Protein concentration was measured on an Agilent Cary 60 UV-VIS Solo VPE spectrophotometer.

Factor Bb = Factor Bb (Homo sapiens, UniProt P00751); assay: Binding profile: binding to Factor Bb; details: relative to the binding of the negative control mIgG2 antibody
From the text: as §1

Sequence of C3c (P01024 23-667 limits assumed): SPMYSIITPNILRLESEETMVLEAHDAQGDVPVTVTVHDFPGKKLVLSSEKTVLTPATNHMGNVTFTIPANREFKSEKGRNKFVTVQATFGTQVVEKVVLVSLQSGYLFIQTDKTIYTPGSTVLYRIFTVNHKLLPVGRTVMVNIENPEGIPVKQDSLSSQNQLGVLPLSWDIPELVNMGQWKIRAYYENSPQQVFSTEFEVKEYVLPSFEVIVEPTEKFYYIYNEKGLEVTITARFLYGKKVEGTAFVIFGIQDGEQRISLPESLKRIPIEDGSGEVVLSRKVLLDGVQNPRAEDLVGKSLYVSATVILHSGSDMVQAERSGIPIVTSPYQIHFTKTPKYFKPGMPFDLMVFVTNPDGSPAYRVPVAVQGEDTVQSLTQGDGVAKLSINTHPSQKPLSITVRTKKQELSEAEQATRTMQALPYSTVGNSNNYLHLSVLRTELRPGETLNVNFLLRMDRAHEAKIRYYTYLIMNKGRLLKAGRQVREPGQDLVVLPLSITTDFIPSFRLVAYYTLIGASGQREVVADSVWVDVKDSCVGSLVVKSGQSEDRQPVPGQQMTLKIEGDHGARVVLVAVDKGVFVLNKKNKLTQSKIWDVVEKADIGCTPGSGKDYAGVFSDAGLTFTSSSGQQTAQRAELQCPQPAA
Sequence of C3c (P01024 749-954 limits assumed): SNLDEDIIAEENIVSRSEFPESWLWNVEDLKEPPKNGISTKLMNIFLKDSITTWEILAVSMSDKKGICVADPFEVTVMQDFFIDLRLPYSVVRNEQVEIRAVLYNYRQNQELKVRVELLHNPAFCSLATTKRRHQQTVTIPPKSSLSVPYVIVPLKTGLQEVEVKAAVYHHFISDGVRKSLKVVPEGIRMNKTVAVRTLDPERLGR
Sequence of C3c (P01024 1321-1663 limits assumed): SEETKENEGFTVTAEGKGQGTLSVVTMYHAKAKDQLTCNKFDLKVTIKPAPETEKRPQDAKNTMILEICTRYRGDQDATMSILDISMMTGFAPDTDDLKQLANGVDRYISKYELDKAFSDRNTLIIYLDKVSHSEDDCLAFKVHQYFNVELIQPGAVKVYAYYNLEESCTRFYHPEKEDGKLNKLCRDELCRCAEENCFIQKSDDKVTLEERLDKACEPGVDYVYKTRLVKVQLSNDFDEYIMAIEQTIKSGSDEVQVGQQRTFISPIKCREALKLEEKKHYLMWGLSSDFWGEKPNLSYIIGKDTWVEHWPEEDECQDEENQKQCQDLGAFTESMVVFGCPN
Sequence of iC3b (P01024 23-667 limits assumed): as the sequence (P01024 23-667 limits assumed) above
Sequence of iC3b (P01024 749-1303 limits assumed): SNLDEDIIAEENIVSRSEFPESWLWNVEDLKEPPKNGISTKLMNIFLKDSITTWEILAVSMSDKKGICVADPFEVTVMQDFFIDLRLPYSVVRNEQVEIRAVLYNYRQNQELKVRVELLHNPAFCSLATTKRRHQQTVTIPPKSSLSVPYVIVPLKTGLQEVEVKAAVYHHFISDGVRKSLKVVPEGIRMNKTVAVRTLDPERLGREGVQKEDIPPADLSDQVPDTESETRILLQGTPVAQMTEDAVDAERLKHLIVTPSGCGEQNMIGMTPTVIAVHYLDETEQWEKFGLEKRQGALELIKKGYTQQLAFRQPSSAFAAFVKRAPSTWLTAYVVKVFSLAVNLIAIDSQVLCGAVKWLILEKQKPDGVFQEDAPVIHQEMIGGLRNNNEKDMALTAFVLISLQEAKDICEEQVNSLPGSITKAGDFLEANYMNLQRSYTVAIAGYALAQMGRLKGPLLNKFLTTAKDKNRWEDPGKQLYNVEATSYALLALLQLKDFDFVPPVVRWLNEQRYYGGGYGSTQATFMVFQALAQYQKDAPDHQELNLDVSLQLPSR
Sequence of iC3b (P01024 1321-1663 limits assumed): as the sequence (P01024 1321-1663 limits assumed) above
Sequence of Factor Bb (P00751 260-764 limits assumed): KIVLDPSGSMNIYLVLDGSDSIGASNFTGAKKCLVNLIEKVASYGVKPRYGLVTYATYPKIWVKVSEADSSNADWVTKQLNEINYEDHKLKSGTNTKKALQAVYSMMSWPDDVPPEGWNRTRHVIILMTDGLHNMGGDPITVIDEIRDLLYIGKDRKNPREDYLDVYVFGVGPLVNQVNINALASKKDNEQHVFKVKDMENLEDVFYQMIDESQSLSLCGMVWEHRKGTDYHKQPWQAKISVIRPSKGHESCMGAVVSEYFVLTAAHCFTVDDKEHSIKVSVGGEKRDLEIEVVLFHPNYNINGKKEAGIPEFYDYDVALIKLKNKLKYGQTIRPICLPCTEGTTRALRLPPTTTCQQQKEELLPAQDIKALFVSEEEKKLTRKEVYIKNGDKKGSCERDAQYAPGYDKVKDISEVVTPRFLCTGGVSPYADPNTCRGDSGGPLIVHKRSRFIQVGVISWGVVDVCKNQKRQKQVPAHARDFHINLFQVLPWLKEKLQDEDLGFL
T1 sequence (P01024 23-1663): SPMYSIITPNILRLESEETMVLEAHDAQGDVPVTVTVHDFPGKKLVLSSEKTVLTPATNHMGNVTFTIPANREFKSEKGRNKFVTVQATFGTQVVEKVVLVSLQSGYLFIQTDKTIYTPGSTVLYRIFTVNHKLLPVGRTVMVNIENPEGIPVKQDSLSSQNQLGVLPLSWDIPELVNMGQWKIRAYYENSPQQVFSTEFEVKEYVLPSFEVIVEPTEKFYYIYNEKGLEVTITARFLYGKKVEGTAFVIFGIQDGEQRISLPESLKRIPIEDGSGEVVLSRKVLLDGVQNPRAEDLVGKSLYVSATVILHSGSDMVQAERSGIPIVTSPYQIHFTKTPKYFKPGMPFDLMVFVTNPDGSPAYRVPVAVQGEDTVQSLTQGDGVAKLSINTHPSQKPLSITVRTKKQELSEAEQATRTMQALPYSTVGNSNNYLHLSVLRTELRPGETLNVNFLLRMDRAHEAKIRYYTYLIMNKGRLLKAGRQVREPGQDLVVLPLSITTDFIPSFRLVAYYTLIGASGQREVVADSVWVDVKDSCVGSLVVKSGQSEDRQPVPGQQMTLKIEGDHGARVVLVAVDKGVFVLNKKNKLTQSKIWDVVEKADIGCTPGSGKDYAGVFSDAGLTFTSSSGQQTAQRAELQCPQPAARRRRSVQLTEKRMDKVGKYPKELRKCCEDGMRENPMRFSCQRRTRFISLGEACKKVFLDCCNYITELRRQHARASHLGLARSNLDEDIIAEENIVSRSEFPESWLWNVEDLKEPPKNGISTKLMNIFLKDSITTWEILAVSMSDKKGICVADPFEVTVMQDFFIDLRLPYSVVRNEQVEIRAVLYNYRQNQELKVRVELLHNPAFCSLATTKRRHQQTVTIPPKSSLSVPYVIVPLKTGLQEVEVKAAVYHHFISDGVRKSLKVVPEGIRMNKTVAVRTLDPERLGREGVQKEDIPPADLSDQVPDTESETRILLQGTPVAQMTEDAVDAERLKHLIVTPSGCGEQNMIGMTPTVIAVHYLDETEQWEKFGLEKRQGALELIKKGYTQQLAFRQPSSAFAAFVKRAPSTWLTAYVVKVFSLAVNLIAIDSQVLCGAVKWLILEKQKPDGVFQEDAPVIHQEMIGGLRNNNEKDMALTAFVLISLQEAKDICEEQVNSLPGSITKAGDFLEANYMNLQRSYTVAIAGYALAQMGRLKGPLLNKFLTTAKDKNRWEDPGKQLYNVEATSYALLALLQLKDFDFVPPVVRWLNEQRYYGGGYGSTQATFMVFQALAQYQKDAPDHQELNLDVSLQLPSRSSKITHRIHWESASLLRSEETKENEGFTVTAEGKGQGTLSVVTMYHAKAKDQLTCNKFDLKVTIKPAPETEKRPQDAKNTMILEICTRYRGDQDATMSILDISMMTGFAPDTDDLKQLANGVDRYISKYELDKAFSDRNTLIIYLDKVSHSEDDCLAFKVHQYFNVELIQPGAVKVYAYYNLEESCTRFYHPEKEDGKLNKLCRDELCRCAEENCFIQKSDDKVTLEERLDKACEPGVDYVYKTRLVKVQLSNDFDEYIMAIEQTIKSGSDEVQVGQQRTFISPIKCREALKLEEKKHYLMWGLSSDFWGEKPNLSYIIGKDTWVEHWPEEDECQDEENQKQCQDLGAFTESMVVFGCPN
Sequence of C3b (P01024 23-667 limits assumed): as the sequence (P01024 23-667 limits assumed) above
Sequence of C3b (P01024 749-1663 limits assumed): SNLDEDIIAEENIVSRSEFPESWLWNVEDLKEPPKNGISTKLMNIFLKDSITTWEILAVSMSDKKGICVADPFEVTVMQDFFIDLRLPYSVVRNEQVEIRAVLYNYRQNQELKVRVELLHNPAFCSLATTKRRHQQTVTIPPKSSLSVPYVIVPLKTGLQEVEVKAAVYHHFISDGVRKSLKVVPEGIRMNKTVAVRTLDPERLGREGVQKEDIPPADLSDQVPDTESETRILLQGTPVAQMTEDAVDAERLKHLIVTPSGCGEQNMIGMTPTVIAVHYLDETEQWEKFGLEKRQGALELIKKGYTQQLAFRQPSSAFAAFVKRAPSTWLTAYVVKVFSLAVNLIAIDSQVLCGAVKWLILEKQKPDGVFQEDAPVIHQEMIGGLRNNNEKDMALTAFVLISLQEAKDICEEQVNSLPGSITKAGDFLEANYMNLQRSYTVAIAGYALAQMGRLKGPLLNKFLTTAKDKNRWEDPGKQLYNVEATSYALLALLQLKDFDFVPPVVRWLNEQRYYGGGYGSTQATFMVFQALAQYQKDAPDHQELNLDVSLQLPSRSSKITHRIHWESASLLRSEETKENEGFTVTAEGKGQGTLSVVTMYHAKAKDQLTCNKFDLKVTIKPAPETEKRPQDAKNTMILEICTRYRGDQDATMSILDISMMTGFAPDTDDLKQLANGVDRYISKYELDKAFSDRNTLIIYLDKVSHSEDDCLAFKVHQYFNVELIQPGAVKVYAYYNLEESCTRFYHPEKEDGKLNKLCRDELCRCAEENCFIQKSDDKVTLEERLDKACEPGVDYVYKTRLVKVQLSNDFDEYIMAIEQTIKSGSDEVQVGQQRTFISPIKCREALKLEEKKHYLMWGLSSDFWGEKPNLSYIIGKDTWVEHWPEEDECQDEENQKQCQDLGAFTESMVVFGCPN

Molecule	binding to iC3b (iC3b)	binding to C3c (C3c)	binding to Factor Bb (Factor Bb)	further results
B1	0.06	0.13		C3 binding profile (C3 versus fragments of the complement cascade) (C3 [1]): bound preferentially to C3 with no detectable or very limited binding to any of the fragments of the complement cascade; binding to C3b (C3b): 0.06
B2				binding to human C3 as compared to Hz38G10 (C3 [2]): reduced binding
B3				deamidation at the asparagine N55, Day 0 ([3]; pH 8.5, Day 0): 0.66%; deamidation at the asparagine N55, Day 7 ([3]; pH 8.5, Day 7): 1.0%
B4				protein concentration reached with no visible aggregation [4]: 229 mg/mL
B5	0.49	0.43	0.00	
B6	0.72	0.55	0.00	
B7	0.29	0.17		
B8	0.25	0.22		
B9		0.28	0.00	
B10	0.45	0.45		
